Assay in all cases: Antibody titer in serum of immunized mice, indirect ELISA
Format in all cases: in vivo

One assay has as its system IL-2Ra. As to conditions: FIG. 9; compared with the IL-2Ra group and the IL-2Ra-PADRE group; mice immunized subcutaneously, 50 μg, Freund's adjuvant. How it is done:
(§1) The protocol is as follows: • (1) The helper epitope was connected to individual antigens or antigen epitope with the linking peptide to construct multiple fusion antigens. The sequence of the linking peptide is GPSL (i.e. Gly-Pro-Ser-Leu) (SEQ ID NO:51). • (2) The fusion antigens from (1) were emulsified adequately with complete Freund's adjuvant of the same volume. Then to immunize mice via subcutaneous injection with the emulsion at the dose of 50 μg per mouse. The strains of experimental mice including C57, Fvb and Balb/C. After 7 days and 14 days of first immunization, the fusion antigens from (1) were emulsified adequately with incomplete Freund's adjuvant of the same volume and then to immunize mice via subcutaneous injection with the emulsion at the dose of 50 μg per mouse. • (3) There are two detection methods. One is to obtain the orbital blood of immunized mice on 7, 14, 21 and 28 day respectively, centrifuge the whole blood to get the serum. Then the antibody titer is detected by indirect ELISA. The other one is: one week after the last immunization, the mice are killed to get the spleen. PBMC (peripheral blood mononuclear cells) are isolated, and the CTL-mediated cytotoxicity is detected by LDH (lactate dehydrogenase) kit.
(§2) The first step was to construct the fusion antigen. According to each fusion antigen, C57BL/6 female mice aged 6-8 weeks were randomly divided into three groups with 6 mice in each group. They were PBS group, existing antigen or antigen epitope group, antigen-PADRE or antigen epitope-PADRE group, and vaccine group containing fusion antigen.
(§3) In the second step, using fusion antigen to immunize mice via subcutaneous injection for 3 times […] 50 μg each time. Mixed with Freund's adjuvant of the same volume.
(§4) Method 1: The whole blood was collected every week after immunization and centrifugated at 6000 rpm for 20 min to obtain the serum for a total of 4 weeks. Antibody titers were detected by indirect ELISA as follows: • (1) Coating: the existing antigen or antigen epitope was diluted to 5 μg/mL with coating solution. Then the 100 μL mixed solution was added into each well of enzyme immunoassay test strip, and incubated in 37° C. incubator for 2 h; • (2) use PBST to wash each well 5 times for 5 min each time; • (3) Sealing: 150 μL locking solution was added to each well of the enzyme immunoassay test strip and incubated at 4° C. overnight. • (4) Repeat step (2); • (5) Incubation first antibody: the collected mouse serum was diluted with antibody diluent. Then the 100 μL mixed solution was added into each well, and incubated at 37° C. for 2 h; • (6) Repeat step (2); • (7) Incubating secondary antibodies: HRP-GOAT Anti-mouse IgG was diluted with antibody dilution in the ratio of 1:10000, and 100 μL dilution was added to each well, and incubated at 37° C. for 45 min; • (8) Repeat step (2); • (9) Substrate addition: 100 μL TMB substrate reaction solution was added into each well of enzyme label, and incubated at 37° C. for 15 min in darkness. • (10) Termination reaction: 50 μL 2M H2SO4 was added into each well to terminate the reaction. • (11) Color development: the absorbance value of the sample in each well was detected at 450/630 nm.

The subject of the next assay is PSMA. As to conditions: FIG. 11; compared with the PSMA group and the PSMA-PADRE group; mice immunized subcutaneously, 50 μg, Freund's adjuvant. How it is done:
as §1, §2, §3, §4

In another assay the test system is TOLL-1. As to conditions: FIG. 12; compared with the TOLL-1 group and the TOLL-1-PADRE group; mice immunized subcutaneously, 50 μg, Freund's adjuvant. How it is done: as §1, §2, §3, §4
In another assay the test system is PD-L1 molecule. As to conditions: FIG. 2; compared with the PD-L1 group and the PD-L1-PADRE group; mice immunized subcutaneously, 50 μg, Freund's adjuvant. How it is done: as §1, §2, §3, §4
The subject of another assay is CD20. As to conditions: FIG. 5; compared with the CD20 group and the CD20-PADRE group; mice immunized subcutaneously, 50 μg, Freund's adjuvant. How it is done: as §1, §2, §3, §4
Another assay has as its system EGFR. Conditions: FIG. 4; compared with the EGFR group and the EGFR-PADRE group; mice immunized subcutaneously, 50 μg, Freund's adjuvant. Here is the method: as §1, §2, §3, §4
Assay [1] deals with VEGFR extracellular domain. Conditions: FIG. 8; compared with the VEGFR extracellular region group and the VEGFR-PADRE group; mice immunized subcutaneously, 50 μg, Freund's adjuvant. How it is done:
as §1, §2, §3, §4

A further assay concerns CD66e. Conditions: FIG. 6; compared with the CD66e group and the CD66e-PADRE group; mice immunized subcutaneously, 50 μg, Freund's adjuvant. How it is done:
as §1, §2, §3, §4

Non-standard residues stand in square brackets, D forms with d. Phe(4-NO2) = N[C@@H](Cc1ccc([N+](=O)[O-])cc1)C(=O)O

B1: IL/2Ra-9pPhe-PADRE: fusion antigen: IL-2Ra linked via GPSL to helper epitope SEQ ID NO: 10 (protein)
chain: ELCDDDPPEIPHATFKAMAYKEGTMLNCECKRGFRRIKSGSLYMLCTGNSSHSSWDNQCQCTSSATRNTTKQVTPQPEEQKERKTTEMQSPMQPVDQASLPGHCREPPPWENEATERIYHFVVGQMVYYQCVQGYRALHRGPAESVCKMTHGKTRWTQPQLICTGEMETSQFPGEEKPQASPEGRPESETSCLVTTTDFQIQTEMAATMETSIFTTEYQGPSLAKFVAAWT[Phe(4-NO2)]KAAA
For the molecule B1, in the assay on IL-2Ra, the antibody titers result was “increased significantly”.

B2: PSMA-11pPhe-PADRE: fusion antigen: PSMA linked via GPSL to helper epitope SEQ ID NO: 12 (protein)
chain: QGQAQQQAYDRGITIFSPDGRLYQVEYAREAVKRGTASIGVRTPEGVVLAADKRSRSPLMEPTSVEKIHKADDHIGIASAGHVADARQLIDFARRQSQVNRLRYGEPIGIETLTKEVTDHIQQYTQVGGARPFGVALLIGGVENGTPRLYETDPSGTPYEWKAVSIGADRGDHQEHLEENFRDDLTLDEGIELALEAIASTSDEGTAPDGVDVATVSAETERFVELSNDEIESYLEANDLLATEDDEQTEEGPSLAKFVAAWTLK[Phe(4-NO2)]AA
As for B2, the antibody titers entry with PSMA is “increased significantly”.

B3: TOLL/1-12pPhe-PADRE: fusion antigen: TOLL-1 linked via GPSL to helper epitope SEQ ID NO: 13 (protein)
chain: SEFLVDRSKNGLIHVPKDLSQKTTILNISQNYISELWTSDILSLSKLRILIISHNRIQYLDISVFKFNQELEYLDLSHNKLVKISCHPTVNLKHLDLSFNAFDALPICKEFGNMSQLKFLGLSTTHLEKSSVLPIAHLNISKVLLVLGETYGEKEDPEGLQDFNTESLHIVFPTNKEFHFILDVSVKTVANLELSNIKCVLEDNKCSYFLSILAKLQTNPKLSNLTLNNIETTWNSFIRILQLVWHTTVWYFSISNVKLQGQLDFRDFDYSGTSLKALSIHQVVSDVFGFPQSYIYEIFSNMNIKNFTVSGTRMVHMLCPSKISPFLHLDFSNNLLTDTVFENCGHLTELETLILQMNQLKELSKIAEMTTQMKSLQQLDISQNSVSYDEKKGDCSWTKSLLSLNMSSNILTDTIFRCLPPRIKVLDLHSNKIKSIPKQVVKLEALQELNVAFNSLTDLPGCGSFSSLSVLIIDHNSVSHPSADFFQSCQKMRSIKAGDNPFQCTCELGEFVKNIDQVSSEVLEGWPDSYKCDYPESYRGTLLKDFHMSELSCNITGPSLAKFVAAWTLKA[Phe(4-NO2)]A
Take B3: the antibody titers entry in the assay with TOLL-1 is “increased significantly”.

B4: PD/L1-2pPhe-PADRE: fusion antigen: PD-L1 molecule linked via GPSL to helper epitope SEQ ID NO: 3 (protein)
chain: MQLKPMEINPEMLNKVLSRLGVAGQWRFVDVLGLEEESLGSVPAPACALLLLFPLTAQHENFRKKQIEELKGQEVSPKVYFMKQTIGNSCGTIGLIHAVANNQDKLGFEDGSVLKQFLSETEKMSPEDRAKCFEKNEAIQAAHDAVAQEGQCRVDDKVNFHFILFNNVDGHLYELDGRMPFPVNHGASSEDTLLKDAAKVCREFTEREQGEVRFSAVALCGPSLA[Phe(4-NO2)]FVAAWTLKAAA
B4: the antibody titer result in the assay with PD-L1 molecule was “significant increase”.

B5: CD20-5pPhe-PADRE: fusion antigen: CD20 linked via GPSL to helper epitope SEQ ID NO: 6 (protein)
chain: MTTPRNSVNGTFPAEPMKGPIAMQSGPKPLFRRMSSLVGPTQSFFMRESKTLGAVQIMNGLFHIALGGLLMIPAGIYAPICVTVWYPLWGGIMYIISGSLLAATEKNSRKCLVKGKMIMNSLSLFAAISGMILSIMDILNIKISHFLKMESLNFIRAHTPYINIYNCEPANPSEKNSPSTQYCYSIQSLFLGILSVMLIFAFFQELVIAGIVENEWKRTCSRPKSNIVLLSAEEKKEQTIEIKEEVVGLTETSSQPKNEEDIEIIPIQEEEEEETETNFPEPPQDQESSPIENDSSPGPSLAKFV[Phe(4-NO2)]AWTLKAAA
With B5, the antibody titer result in the assay with CD20 was “significant increase”.

B6: EGFR-4pPhe-PADRE: fusion antigen: EGFR linked via GPSL to helper epitope SEQ ID NO: 5 (protein)
chain: MERKERPFDVIGQLAALRRYARSLVRNSDDAEDLVHDALLRAYEKKQSFRRGGNLRTWLLSIMHNAHIDRVRQARSLARRHDEAAVEAEQSLQAGQEHAVRLKQVRDAFFHLSEEQREALHLVAIEDLSYQEAAMALDIPIGTLMSRISRARAQLREFEEKTPRAAHLRLIGGDGNEGNGPSLAKF[Phe(4-NO2)]AAWTLKAAA
Regarding B6, the antibody titer entry in the assay with EGFR was “increased significantly”.

B7: VEGFR-8pPhe-PADRE: fusion antigen: VEGFR extracellular domain linked via GPSL to helper epitope SEQ ID NO: 9 (protein)
chain: ASVGLPSVSLDLPRLSIQKDILTIKANTTLQITCRGQRDLDWLWPNNQSGSEQRVEVTECSDGLFCKTLTIPKVIGNDTGAYKCFYRETDLASVIYVYVQDYRSPFIASVSDQHGVVYITENKNKTVVIPCLGSISNLNVSLCARYPEKRFVPDGNRISWDSKKGFTIPSYMISYAGMVFCEAKINDESYQSIMYIVVVVGYRIYDVVLSPSHGIELSVGEKLVLNCTARTELNVGIDFNWEYPSSKHQHKKLVNRDLKTQSGSEMKKFLSTLTIDGVTRSDQGLYTCAASSGLMTKKNSTFVRVHEKPFVAFGSGMESLVEATVGERVRIPAKYLGYPPPEIKWYKNGIPLESNHTIKAGHVLTIMEVSERDTGNYTVILTNPISKEKQSHVVSLVVYVPPQIGEKSLISPVDSYQYGTTQTLTCTVYAIPPPHHIHWYWQLEEECANEPSQAVSVTNPYPCEEWRSVEDFQGGNKIEVNKNQFALIEGKNKTVSTLVIQAANVSALYKCEAVNKVGRGERVISFHVTRGPEITLQPDMQPTEQESVSLWCTADRSTFENLTWYKLGPQPLPIHVGELPTPVCKNLDTLWKLNATMFSNSTNDILIMELKNASLQDQGDYVCLAQDRKTKKRHCVVRQLTVLERVAPTITGNLENQTTSIGESIEVSCTASGNPPPQIMWFKDNETLVEDSGIVLKDGNRNLTIRRVRKEDEGLYTCQACSVLGCAKVEAFFIIEGAQEKTNLEGPSLAKFVAAW[Phe(4-NO2)]LKAAA
For B7, in assay [1], the antibody titers result is “increased significantly”.

B8: CD66e-6pPhe-PADRE: fusion antigen: CD66e linked via GPSL to helper epitope SEQ ID NO: 7 (protein)
chain: KLTIESTPFNVAEGKEVLLLVHNLPQHLFGYSWYKGERVDGNRQIIGYVIGTQQATPGPAYSGREIIYPNASLLIQNIIQNDTGFYTLHVIKSDLVNEEATGQFRVYPELPKPSISSNNSKPVEDKDAVAFTCEPETQDATYLWWVNNQSLPVSPRLQLSNGNRTLTLFNVTRNDTASYKCETQNPVSARRSDSVILNVLYGPDAPTISPLNTSYRSGENLNLSCHAASNPPAQYSWFVNGTFQQSTQELFIPNITVNNSGSYTCQAHNSDTGLNRTTVTTITVYAEPPKPFITSNNSNPVEDEDAVALTCEPEIQNTTYLWWVNNQSLPVSPRLQLSNDNRTLTLLSVTRNDVGPYECGIQNKLSVDHSDPVILNVLYGPDDPTISPSYTYYRPGVNLSLSCHAASNPPAQYSWLIDGNIQQHTQELFISNITEKNSGLYTCQANNSASGHSRTTVKTITVSAELPKPSISSNNSKPVEDKDAVAFTCEPEAQNTTYLWWVNGQSLPVSPRLQLSNGNRTLTLFNVTRNDARAYVCGIQNSVSANRSDPVTLDVLYGPDTPIISPPDSSYLSGANLNLSCHSASNPSPQYSWRINGIPQQHTQVLFIAKITPNNNGTYACFVSNLATGRNNSIVKSITVSASGTSPGLSAGPSLAKFVA[Phe(4-NO2)]WTLKAAA
As to B8, the antibody titer entry in the assay with CD66e is on record as “significant increase”.

The record behind these values is patent US12226476B2, “Helper epitope peptide and application thereof” (CHINA PHARMACEUTICAL UNIVERSITY, priority 2018, dated 2025).
